{"source": "paper PMC3580866", "key": {"[1]": {"target": "human SLBP (hSLBP), Stem-Loop Binding Protein RNA binding domain (RBD/RPD) (UniProt Q14493)", "test": "mass spectrometry of oligomer peaks", "conditions": "reference: bacterially expressed unphosphorylated RBD; sites T171"}, "[2]": {"target": "human SLBP RNA binding domain, phosphorylated at Thr171, baculovirus expressed (human)", "test": "electrospray mass spectrometry"}, "[3]": {"target": "human SLBP RNA binding domain, unphosphorylated, bacterially expressed (human)", "test": "MALDI-TOF mass spectrometry"}}}
{"substance": "human SLBP (hSLBP), Stem-Loop Binding Protein RNA binding domain (RBD/RPD) (from UniProt Q14493) baculovirus-expressed phosphorylated RBD", "values": [{"measurement": "other: percent of mass as dimer", "setting": "[1]", "value": "weaker; reference 35.3"}]}
{"substance": "human SLBP RNA binding domain, phosphorylated at Thr171, baculovirus expressed (domain or fragment)", "values": [{"measurement": "percent of the mass spectrum as dimer", "setting": "[2]", "value": 5.6, "unit": "%"}, {"measurement": "percent of the mass spectrum as tetramer", "setting": "[2]", "value": 3.8, "unit": "%"}, {"measurement": "percent of the mass spectrum as trimer", "setting": "[2]", "value": 3.9, "unit": "%"}]}
{"substance": "human SLBP RNA binding domain, unphosphorylated, bacterially expressed (domain or fragment)", "values": [{"measurement": "percent of the mass spectrum as dimer", "setting": "[3]", "value": 35.3, "unit": "%"}, {"measurement": "percent of the mass spectrum as hexamer", "setting": "[3]", "value": 9.7, "unit": "%"}, {"measurement": "percent of the mass spectrum as tetramer", "setting": "[3]", "value": 12.4, "unit": "%"}, {"measurement": "percent of the mass spectrum as trimer", "setting": "[3]", "value": 9.9, "unit": "%"}]}
